Laboratory results reported in PMC9867979, “Pab1 acetylation at K131 decreases stress granule formation in Saccharomyces cerevisiae”.

Target: Pab1 RRM1-RRM2 (Saccharomyces cerevisiae, UniProt P04147 38-203)
Experiment: EMSA; protein titration up to 5000 nM; EMSA: 1x binding buffer (from 5x: 50 mM Tris-HCl pH 7.5, 750 mM KCl, 0.5 mM EDTA, 0.5 mM DTT) = 10 mM Tris-HCl, 150 mM KCl, 0.1 mM EDTA, 0.1 mM DTT, plus protein buffer (20 mM Tris-HCl pH 7.4, 100 mM KOAc, 2 mM MgOAc, 10% glycerol); 20 ul, 30 C, 30 min; 10% native PAGE, 0.4x TBE, 4 C
Conditions: protein: recombinant; tags: GST (pGEX-4T-1), removed with thrombin; label: Cy5 at both ends (as named); single strand

Chain of Pab1 RRM1-RRM2 (P04147 38-203): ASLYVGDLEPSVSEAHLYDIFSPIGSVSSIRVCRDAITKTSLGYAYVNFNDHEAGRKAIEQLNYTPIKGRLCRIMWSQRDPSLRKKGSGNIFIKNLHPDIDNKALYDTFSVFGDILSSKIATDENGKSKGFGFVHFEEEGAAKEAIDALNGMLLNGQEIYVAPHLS

B1: Cy5-Poly(A)20-Cy5 (ssRNA)
RNA: AAAAAAAAAAAAAAAAAAAA
binding result: binds
